Source: patent US20160031952A1

What was measured:
Assay in all cases: cell-based or functional assay
[1] = target: transthyretin (TTR), pre-incubated at pH 4.5 for 24 hrs, toxic oligomer-containing solution (UniProt P02766)
[2] = target: β-amyloid peptide 1-42 (Aβ), pre-aggregated for 6 hrs, toxic oligomer-containing solution (UniProt P05067)
[3] = target: β-amyloid peptide 1-42 (Aβ), fresh (0 h), monomeric (UniProt P05067)
β-amyloid peptide 1-42 (Aβ), fresh (0 h), monomeric, sequence (P05067 672-713 limits assumed): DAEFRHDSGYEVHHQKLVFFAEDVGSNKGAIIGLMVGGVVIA

β-amyloid peptide 1-42 (Aβ), pre-aggregated for 6 hrs, toxic oligomer-containing solution, sequence (P05067 672-713 limits assumed): as above

## α1 (ldas90, peptide #1 of FIG. 5), Ac-RGEmNlSwMNEYSGWtMnLkMGR-NH2 (designed binder)
[1]
  inhibition of the remaining TTR aggregation after addition to 24-hour pre-incubated, toxic TTR (Congo red): 81%
  percentage inhibition of TTR aggregation (Congo red binding, 48 h, 37° C., pH 4.5; peptide co-incubated 20:1 from the start): 72%
[2]
  inhibition of Aβ fibril formation (ThT fluorescence, 22 hours, 37° C.; peptide co-incubated 10:1 from the start): 87%
  inhibition of aggregation after addition to pre-aggregated (6 hrs), toxic Aβ (ThT): 97%

## β (β-sheet control design: Trpzip 3 peptide with Trp to Leu substitutions) (designed binder)
[3]
  inhibition of Aβ fibrillization (ThT fluorescence; co-incubated 10:1): 62%
